Values quoted from earlier work as cited in paper PMC4113456, “Atypical Signaling and Functional Desensitization Response of MAS Receptor to Peptide Ligands” (PLoS ONE, 2014).

Target: T1, MAS (Homo sapiens, UniProt P04201)
T1 construct: expressed in transfected cells
T1 sequence (P04201 1-325): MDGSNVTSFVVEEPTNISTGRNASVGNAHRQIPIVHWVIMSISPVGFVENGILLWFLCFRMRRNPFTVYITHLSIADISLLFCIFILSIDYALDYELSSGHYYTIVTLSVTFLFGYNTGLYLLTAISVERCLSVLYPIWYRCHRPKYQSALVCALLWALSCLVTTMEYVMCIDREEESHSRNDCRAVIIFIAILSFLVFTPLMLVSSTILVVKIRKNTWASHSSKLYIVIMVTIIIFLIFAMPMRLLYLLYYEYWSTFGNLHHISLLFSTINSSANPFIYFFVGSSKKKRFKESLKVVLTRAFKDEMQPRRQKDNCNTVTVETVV
Parameters: method as in ref [4] (a number printed in a supplementary file, which may have a reference list of its own: not looked up in the article's list)
Conditions: ref [4]; cited from earlier work

In the case of “Angioprotectin: physiological ligand, sequence PEVYIHPF”, the “Effect in aortic rings” value is given as “Vasodilator effect in aortic rings”.
